This passage reports protein stability index results from the supplement of paper PMC10567573.

B1: GNB5 (parent)
chain: DINSVRYYPSGDAFASGSDDATCR
B2: PPP2R2B (parent)
chain: RNTKRDVTLEASRENSKPRAILKP
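Further: lentivirally expressed fusions sorted by FACS into six bins by GFP to DsRed ratio, PSI derived from sequencing read proportions per bin multiplied by bin number.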

In one data set the parent is B1. The experiment in a line: protein stability index of a GFP-peptide fusion (GPS, HEK-293T) (PSI 1-6); higher = more stable. Particulars: c terminus: a fixed tail appended.
With DINSVRQYPSGDAFASGSDDATCR [Y7Q], the protein stability index stood at 4.21.
As for DINSVRVYPSGDAFASGSDDATCR [Y7V], the protein stability index worked out at 4.51.
On the same count and under the same terms, under DINSVRRYPSGDAFASGSDDATCR [Y7R] stands 4.2; under DINSVRHYPSGDAFASGSDDATCR [Y7H], 4.38.
Take DINSVRDYPSGDAFASGSDDATCR [Y7D]: the protein stability index was 4.77.
Consider DSNSVRYYPSGDAFASGSDDATCR [I2S], for which the protein stability index was found to be 4.6.
DKNSVRYYPSGDAFASGSDDATCR [I2K]: the protein stability index came to 4.68.
In the case of DWNSVRYYPSGDAFASGSDDATCR [I2W], the protein stability index was determined as 3.99.
For the variant DANSVRYYPSGDAFASGSDDATCR [I2A], the protein stability index was 4.41.
On to DFNSVRYYPSGDAFASGSDDATCR [I2F], for which the protein stability index was determined as 3.98.
Consider DHNSVRYYPSGDAFASGSDDATCR [I2H], for which the protein stability index was found to be 4.51.
On the same count and under the same terms, under DDNSVRYYPSGDAFASGSDDATCR [I2D] stands 5.39; under DYNSVRYYPSGDAFASGSDDATCR [I2Y], 4.32.
In the case of DTNSVRYYPSGDAFASGSDDATCR [I2T], the protein stability index amounted to 4.49.
Still for that read-out and setting: under DQNSVRYYPSGDAFASGSDDATCR [I2Q] stands 4.72; under DCNSVRYYPSGDAFASGSDDATCR [I2C], 4.32; under DENSVRYYPSGDAFASGSDDATCR [I2E], 4.87.
Still for that read-out and setting: under DNNSVRYYPSGDAFASGSDDATCR [I2N] stands 4.92.
On to DRNSVRYYPSGDAFASGSDDATCR [I2R], for which the protein stability index was 4.36.
Take DPNSVRYYPSGDAFASGSDDATCR [I2P]: the protein stability index was found to be 4.92.
Regarding DMNSVRYYPSGDAFASGSDDATCR [I2M], the protein stability index came out at 4.1.
For the variant DVNSVRYYPSGDAFASGSDDATCR [I2V], the protein stability index turned out to be 3.93.
On the same count and under the same terms, under DLNSVRYYPSGDAFASGSDDATCR [I2L] stands 3.82; under DGNSVRYYPSGDAFASGSDDATCR [I2G], 4.54.
In the case of DINSVLYYPSGDAFASGSDDATCR [R6L], the protein stability index stood at 3.56.
Take DINSVDYYPSGDAFASGSDDATCR [R6D]: the protein stability index came out at 4.58.
Regarding DINSVPYYPSGDAFASGSDDATCR [R6P], the protein stability index turned out to be 4.29.
For the variant DINSVEYYPSGDAFASGSDDATCR [R6E], the protein stability index was found to be 5.13.
As for DINSVVYYPSGDAFASGSDDATCR [R6V], the protein stability index was 3.91.
As for DINSVQYYPSGDAFASGSDDATCR [R6Q], the protein stability index came out at 4.64.
The same measure, in the same setting: under DINSVTYYPSGDAFASGSDDATCR [R6T] stands 4.82; under DINSVAYYPSGDAFASGSDDATCR [R6A], 4.44.
Still for that read-out and setting: under DINSVFYYPSGDAFASGSDDATCR [R6F] stands 3.57; under DINSVYYYPSGDAFASGSDDATCR [R6Y], 3.62.
With DINSVGYYPSGDAFASGSDDATCR [R6G], the protein stability index came out at 4.3.
Consider DINSVCYYPSGDAFASGSDDATCR [R6C], for which the protein stability index was 3.9.
For DINSVMYYPSGDAFASGSDDATCR [R6M], the protein stability index was 4.04.
In the case of DINSVHYYPSGDAFASGSDDATCR [R6H], the protein stability index is 4.26.
Consider DINSVWYYPSGDAFASGSDDATCR [R6W], for which the protein stability index was 3.33.
DINSVIYYPSGDAFASGSDDATCR [R6I]: the protein stability index was found to be 3.88.
Same read-out and setting: under DINSVKYYPSGDAFASGSDDATCR [R6K] stands 4.34; under DINSVSYYPSGDAFASGSDDATCR [R6S], 4.41.
With DINSVNYYPSGDAFASGSDDATCR [R6N], the protein stability index amounted to 4.31.

In a further data set the parent is B2. The description is as above. Particulars: c terminus: a fixed tail appended.
Turning to RNTKRDVTLEASRENSKPRAILYP [K23Y], the protein stability index is 4.38.
Take RNTKRDVTLEASRENSKPRAILDP [K23D]: the protein stability index is 4.79.
Regarding RNTKRDVTLEASRENSKPRAILHP [K23H], the protein stability index stood at 4.57.
As to RNTKRDVTLEASRENSKPRAILQP [K23Q], the protein stability index was 4.89.
Turning to RNTKRDVTLEASRENSKPRAILVP [K23V], the protein stability index was 4.31.
The same measure, in the same setting: under RNTKRDVTLEASRENSKPRAILCP [K23C] stands 4.25; under RNTKRDVTLEASRENSKPRAILTP [K23T], 4.67.
For RNTKRDVTLEASRENSKPRAILSP [K23S], the protein stability index was 4.56.
Take RNTKRDVTLEASRENSKPRAILIP [K23I]: the protein stability index came to 4.04.
Turning to RNTKRDVTLEASRENSKPRAILMP [K23M], the protein stability index was found to be 3.94.
Take RNTKRDVTLEASRENSKPRAILFP [K23F]: the protein stability index was 3.48.
Turning to RNTKRDVTLEASRENSKPRAILPP [K23P], the protein stability index was 4.5.
In the case of RNTKRDVTLEASRENSKPRAILLP [K23L], the protein stability index turned out to be 3.91.
Consider RNTKRDVTLEASRENSKPRAILNP [K23N], for which the protein stability index worked out at 4.18.
Same read-out and setting: under RNTKRDVTLEASRENSKPRAILRP [K23R] stands 4.04; under RNTKRDVTLEASRENSKPRAILGP [K23G], 4.48.
As for RNTKRDVTLEASRENSKPRAILWP [K23W], the protein stability index came to 4.33.
For RNTKRDVTLEASRENSKPRAILEP [K23E], the protein stability index was 4.5.
For RNTKRDVTLEASRENSKPRAILAP [K23A], the protein stability index was found to be 4.5.
On to RNTKRDVTLEASRENSKPRAILKN [P24N], for which the protein stability index came out at 4.82.
Regarding RNTKRDVTLEASRENSKPRAILKF [P24F], the protein stability index stood at 3.56.
Same read-out and setting: under RNTKRDVTLEASRENSKPRAILKE [P24E] stands 4.74.
In the case of RNTKRDVTLEASRENSKPRAILKG [P24G], the protein stability index amounted to 4.65.
In the case of RNTKRDVTLEASRENSKPRAILKV [P24V], the protein stability index worked out at 4.
Turning to RNTKRDVTLEASRENSKPRAILKD [P24D], the protein stability index was found to be 3.69.
Same read-out and setting: under RNTKRDVTLEASRENSKPRAILKM [P24M] stands 4.06; under RNTKRDVTLEASRENSKPRAILKC [P24C], 4.44; under RNTKRDVTLEASRENSKPRAILKY [P24Y], 3.58.
For RNTKRDVTLEASRENSKPRAILKA [P24A], the protein stability index came to 4.74.
In the case of RNTKRDVTLEASRENSKPRAILKQ [P24Q], the protein stability index stood at 4.47.
For the variant RNTKRDVTLEASRENSKPRAILKL [P24L], the protein stability index amounted to 4.
On the same count and under the same terms, under RNTKRDVTLEASRENSKPRAILKK [P24K] stands 4.26.
Take RNTKRDVTLEASRENSKPRAILKS [P24S]: the protein stability index was determined as 4.49.
With RNTKRDVTLEASRENSKPRAILKR [P24R], the protein stability index stood at 4.13.
As for RNTKRDVTLEASRENSKPRAILKI [P24I], the protein stability index is 3.32.
Regarding RNTKRDVTLEASRENSKPRAILKT [P24T], the protein stability index stood at 4.88.
The same measure, in the same setting: under RNTKRDVTLEASRENSKPRAILKH [P24H] stands 4.41; under RNTKRDVTLEASRENSKPRAILKW [P24W], 3.55.
Turning to RNTKRDVTLEASRENSKPRAIMKP [L22M], the protein stability index worked out at 4.33.
Regarding RNTKRDVTLEASRENSKPRAIQKP [L22Q], the protein stability index came out at 4.92.
Take RNTKRDVTLEASRENSKPRAIIKP [L22I]: the protein stability index stood at 4.2.
In the case of RNTKRDVTLEASRENSKPRAIHKP [L22H], the protein stability index stood at 4.8.
Same read-out and setting: under RNTKRDVTLEASRENSKPRAIYKP [L22Y] stands 4.37; under RNTKRDVTLEASRENSKPRAISKP [L22S], 4.9; under RNTKRDVTLEASRENSKPRAIWKP [L22W], 3.98.
With RNTKRDVTLEASRENSKPRAIPKP [L22P], the protein stability index came to 4.28.
Take RNTKRDVTLEASRENSKPRAITKP [L22T]: the protein stability index was 4.49.
With RNTKRDVTLEASRENSKPRAIKKP [L22K], the protein stability index amounted to 5.11.
Consider RNTKRDVTLEASRENSKPRAINKP [L22N], for which the protein stability index was determined as 4.79.
With RNTKRDVTLEASRENSKPRAIVKP [L22V], the protein stability index is 4.72.
Turning to RNTKRDVTLEASRENSKPRAIRKP [L22R], the protein stability index turned out to be 4.75.
